# Assay: yeast display, Sf9 membrane polyspecificity reagent, FACS + sequencing; frameworks hold sequencing errors
# Method in brief: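 Genes from sorted yeast were amplified by colony PCR, read by MiSeq 2 × 250 sequencing and filtered on CDR length. These cells carried a synthetic nanobody library in Saccharomyces cerevisiae BJ5465 and were sorted by FACS into low and high (top ~1%) gates on anti-HA and streptavidin fluorescence. Polyreactivity is labelled according to the gate of origin.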
row,Sequence,polyreactivity (PSR sort gate)
1,QVQLVESGGGLVQAGGSLRLSCAASGFIFYRYAMGWYRQAPGKERELVAAISRSGGSTYYADSVKGRFTISRDNAKNTVYLQMNSLKPEDTAVYYCAADRGSLAPGNDYWGQGTQVTVSS,high polyreactivity
2,QVQLVESGGGLVQAGGSLRLSCAASGFIFYRYAMGWYRQAPGKERELVAAISSSGGSTYYADSVKGRFTISRDNAKNTVYFQMNSLKPEDTAVYYCNKRPQQYRPGYDYWGQGTQVTVSS,high polyreactivity
3,QVQLVESGGGLVQAGGSLRLSCAASGFIFYRYAMGWYRQAPGKERELVAAITSSGGSTYYADSVKGRFTISRDNAKNTVYLQMNSLKPEDTAVYYCAARYTTSRYGYWGQGTQVTVSS,high polyreactivity
4,QVQLVESGGGLVQAGGSLRLSCAASGFIFYRYAMGWYRQAPGKERELVATIRYSGGSTYYADSVKGRFTISRDNAKNTVYLQMNSLKPEDTAVYYCNARRWYLPRRLYDYWGQGTQVTVSS,high polyreactivity
5,QVQLVESGGGLVQAGGSLRLSCAASGFIFYRYAMGWYRQAPGKERELVATISWSGGRTYYADSVKGRFTISRDNAKNTVYLQMNSLKPEDTAVYYCNAVNTHDYGYWGQGTQVTVSS,low polyreactivity
6,QVQLVESGGGLVQAGGSLRLSCAASGFIFYRYTMGWYRQAPGKERELVAAISGSGGSTYYADSVKGRFTISRDNAKNTVYLQMNSLKPEDTAVYYCAAAHRYWGQGTQVTVSS,high polyreactivity
7,QVQLVESGGGLVQAGGSLRLSCAASGFIFYSNAMGWYIQAPGKEREVVAAISWDAGSTYYADSVKGRFTISRDNAKNTVYLQMISLKPEDSAVYYCATDRIVGRYIYNYWGQGTQVTVSS,high polyreactivity
8,QVQLVESGGGLVQAGGSLRLSCAASGFIFYSNAMGWYRQAPGKARELVAAISWGGGRTYYADSVKGRFTISRDNAKNTVYLQMNSLKPEDTAVYYCAADTIVGNGIKFDYWGQGTQVTVSS,high polyreactivity
9,QVQLVESGGGLVQAGGSLRLSCAASGFIFYSYAMGWYRQAPGKERELVAAIDWDDGTTYYADSVKGRFTISRDNAKNTVYLQMNSLNPEDTAVYYCAAESYYGAYDYWGQGTQVTVSS,high polyreactivity
10,QVQLVESGGGLVQAGGSLRLSCAASGFIFYTYAMGWYRQAPGKERELVAAISRGGRTNYADSVKGRFTISRDNAKNTVYLQMNSLKPEDTAVYYCASSYSHRYDYWGQGTQVTVSS,high polyreactivity
11,QVQLVESGGGLVQAGGSLRLSCAASGFIFYTYAMGWYRQAPGKERELVAAISWNGGSTNYADSVKGRFTISRDNAKNTDYLQMNSLKPEDTAVYYCAARSVSTLRYTSRKLRYDYWGQGTQVTVSS,high polyreactivity
12,QVQLVESGGGLVQAGGSLRLSCAASGFIFYTYAMGWYRQAPGKERELVAAISWRGGRTYYADSVKGRFTISRDNAKNTVYLQMNSLKPEDTAVYYCNAVTSSGEYDYWGQGTQVTVSS,high polyreactivity
13,QVQLVESGGGLVQAGGSLRLSCAASGFIFYWYAMGWYRQAHGKERELVARITQSVGRTYYADSVKGRFTISRDNAKNTVYLQMNSLKPEDTAVHYCATDYGSYWSGAAYERYDYWGQGTQVTVSS,low polyreactivity
14,QVQLVESGGGLVQAGGSLRLSCAASGFIFYYNAMGWYRHAPGKERELDAGISRSAGSTYYADSVKGRFTISRDNAKNSVYLHMNSLTPEDTAVYYCAARYLSYITGTSYYWGQVTQVTVSS,low polyreactivity
15,QVQLVESGGGLVQAGGSLRLSCAASGFIFYYNGMGRYRQAPGKERELVAAISGGVGSTYYADSVKGRFTISRDNAKNTVYLQMNSLKPEDTAVYYCNAKLYKPPFDYWGQGTQVTLSS,low polyreactivity
16,QVQLVESGGGLVQAGGSLRLSCAASGFIFYYYAMGWYRPAPGKERELVAAISGESTSTYYADSVKGRFTISRDNAKNTVYLQMNSLKPEDTALYYCAADLYHWDGYEYWGQGTQVTVST,high polyreactivity
17,QVQLVESGGGLVQAGGSLRLSCAASGFIFYYYAMGWYRPAPGKERELVAAISGSGGSTYYADSVKGRFTISRDNAKNTGYLQMNSMNPEDTAVYYCAAVQAAGSHAYDYWGQGTQVTVSS,high polyreactivity
18,QVQLVESGGGLVQAGGSLRLSCAASGFIFYYYAMGWYRQAPGKERELVAAITQGGGSTYYADSVKGRFTISRDNAKNTVFLQMNSLKPEDTAVYYCAAVKRVYAHSRAFSSDFYYWGQGTQVTVSS,high polyreactivity
19,QVQLVESGGGLVQAGGSLRLSCAASGFIGWYAMGWYRQAPGNEREFVAAISASGGSTYYADSVKGRFTISRDNAKNTVYLQMNSLKPEETAVYYCAAYYRAYNPRRFYYWGQGTQVTVSS,high polyreactivity
20,QVQLVESGGGLVQAGGSLRLSCAASGFIIDDNTMGWYRQAPGKEMELVAAISYSAGSTYYADSVKGRFTISRDNAKNTVYLQMNSVKPEDTAVYYCAAQHYWVTSYLSSSDYWGQGTQVTVSS,low polyreactivity
21,QVQLVESGGGLVQAGGSLRLSCAASGFIIDGYAMGWYRQAPVKERELVAVISQRGSNTYYADSVKGRFTISRDNAKNTVYLQMNSLKPEDTAVYYCAARYKQGDSTGGRMNYWGQGTQVTVSS,high polyreactivity
22,QVQLVESGGGLVQAGGSLRLSCAASGFIIDSNAMGWYRQAPGKERELVAAIDYSGGSTYYADSVKGRFTISRDNAKNTVYLQMNSLKPEDTAFYYCAAEYHGYRYNYYPYSHYFIYEYWGQGTQVTVSS,high polyreactivity

row,Sequence,polyreactivity (PSR sort gate)
1,QVQLVESGGGLVQAGGSLRLSCAASGFIIGSYAMGWYRQAPGTERELVAAITRSGGNTYYADSVKGRFTISRDNAKNTVYLQMNSLKPEDTAVYYCAAYSGYWYDYWGQGTQVTVSS,high polyreactivity
2,QVQLVESGGGLVQAGGSLRLSCAASGFIIGYYAMGWYRQAPGKERDLVAAISSTGGSTYYADSVKGRFTISRDNAMNTVYLQMNSLKPEDTAVYYCAKRFAYYRYHPGYDYWGQVTQVTVSS,high polyreactivity
3,QVQLVESGGGLVQAGGSLRLSCAASGFIIKSYAMGWYRQAPGKERELVAAISYTGSITYYADSVKGRFTISRDNAKNTVYLQMNSLKPEDTSVYYCAVGRYADQNDYWGQGTQVTVSS,high polyreactivity
4,QVQLVESGGGLVQAGGSLRLSCAASGFIIKWYAMGWYRQAPGKERELLAAISIDGGSTYYADSVKGRFTISRDNAKNTVYLQMNSLLPEDTAVYYCNAGYNGTQYLTRDYGLGMDYWGLGTQVTVSS,low polyreactivity
5,QVQLVESGGGLVQAGGSLRLSCAASGFIIQGNAMGWYRQAPGKERELVAAISSCVSTYYADSVKGRFTISRDNAKNTVYLQMNSLKPEDTAVYYCNAGFPLSLWLGDYWGQGTHVTVSS,low polyreactivity
6,QVQLVESGGGLVQAGGSLRLSCAASGFIISHYAMGWYRQAPGKERELVAAISSSGGSTYYADSVKGRFTISRDNAKNTVYLQMNSLKPEDTAVYYCAAAAGAYDYDYWGQGTQVNVSS,high polyreactivity
7,QVQLVESGGGLVQAGGSLRLSCAASGFIISPYAMGWYRQAPGKERELVAAISWSGVSTYYADSVKGRFTISRDNAKNTVYLQMNSLKPEDTAVYYCATYRPVYYWGQGTQVTVSS,high polyreactivity
8,QVQLVESGGGLVQAGGSLRLSCAASGFIISPYARGWYRQAPGKETELVAAISWSGVSTYYADSVKGRFTMSRDNAKNTVYLQMNSLNPEDTAVYYCAADPYCVKYRYGDDYWGQGTQVTVSS,high polyreactivity
9,QVQLVESGGGLVQAGGSLRLSCAASGFIISVYAMGWYRPAPGKERELVARIDSGGSTYYADSVKGRFTISRDNAKNTVYLQMNSLKPEDTAVYYGATDEGTVGGQQLRPLMDYWGQGTQVTVSS,low polyreactivity
10,QVQLVESGGGLVQAGGSLRLSCAASGFIITSYAMGWYRQAPGKERELVAAINGGGSTYYADSVKGRFTISRDNAKNTVYLQMNSLKPEDTAVYYCAAKFRAGRSSYYWGQGTQVTVSS,high polyreactivity
11,QVQLVESGGGLVQAGGSLRLSCAASGFIITTYAMGWYRQAPGTEREVVAGISSSGGSTRYADSVKGRFTISRDNAKNTVYLQMNSLKPEDTAVYYCNVLRYRGYDYWGQGTQVTVSS,high polyreactivity
12,QVQLVESGGGLVQAGGSLRLSCAASGFIIVRNALGWYRQAPGKERELVAAMRWSGGSTYYADSEKGRFTISRDNSKNTDYLQMNSLKPEDTAVYYCAARLWLKVQYLRFFVYDYWGQGTQVTVSS,low polyreactivity
13,QVQLVESGGGLVQAGGSLRLSCAASGFIIYGYAMGWYRQAPGKESELVAAISRRSASTYYADSVKGRFTISRDNAKNTVYLQMNSLNPEDTAVYYCNAASARGVIGYKPLWYARGYWGQGTQVTVSS,high polyreactivity
14,QVQLVESGGGLVQAGGSLRLSCAASGFIIYRNPMGWYRQAPGKERELVAGISSGGSTNYADSVKGRFTISRDNEKNTVYLQMNSLKPEDTAVYYCASRVYALWFGRYDYWGQGTQVIVSS,high polyreactivity
15,QVQLVESGGGLVQAGGSLRLSCAASGFIIYSYAMGWYRQAPGKERELVAVISSRGGTTYYADSVKGRFTISRDNAKNTVYLQMNSLKPEDTAVYSCNVDRLGQRSDYWGQGTQVTVSS,low polyreactivity
16,QVQLVESGGGLVQAGGSLRLSCAASGFILATYAMGCYRQAPGKERELVAAISASGSSTYYADSVKGRFTISRDNAKNTVYLQMNSLKPEDTAVYYCAASWGYGALTPDMGYWGQGTQVTVSS,low polyreactivity
17,QVQLVESGGGLVQAGGSLRLSCAASGFILAYYAMGWSRQAPGKERELVAAISIGSSTDYADSVKGRFTISRDNAKNTVYLQINSVKPEDTAVYDFAARDYYYEYDYWGQGTQVTVSS,low polyreactivity
18,QVQLVESGGGLVQAGGSLRLSCAASGFILAYYAMGWYRQSPGKERELVAAISIGSSTDYADSVKGRFTISRDNAKNTVYLQMNSLKPEDTAVYYCAARDYYYEYDYWGQGTQVTVSS,low polyreactivity
19,QVQLVESGGGLVQAGGSLRLSCAASGFILDFNAMGWYRQAPGKERELVAAISISGVSTYYADSVKGRFTISRDNAKNTVYLQMNSLKPEDTAVYYCAAAQDAAVYWRPGGYDYWGQGTQVTVSS,low polyreactivity
20,QVQLVESGGGLVQAGGSLRLSCAASGFILDRYAMGWYRQAPGKERELVASITSGGSTNYADSVKGRFTISRDNAKNTVYLQMNSLKPEDTAVYYCAAYPWRYWNHEYNYWGQGTQVTVSS,high polyreactivity
21,QVQLVESGGGLVQAGGSLRLSCAASGFILDYNAMGWSRQAPGKERELVASIDSGGGTNYADSVKGRFTISRDNAKNTVYLQMNSLKPEDTAVYYCAADVTLWYDYGGQGTQVTVSS,low polyreactivity

# — the nanobody polyreactivity screen of Harvey et al. (2022)
